Here are results for four substances from US20240066137A1, “NOVEL PROTEIN CONJUGATE, AND USE THEREOF FOR PREVENTING OR TREATING NONALCOHOLIC STEATOHEPATITIS, OBESITY AND DIABETES” (ONEGENE BIOTECHNOLOGY INC., priority 2020, published 2024).

Among the targets are IL-1RA acceptor (UniProt P14778); FGFR1/KLB acceptor (UniProt P11362); GIP acceptor (UniProt P48546); GLP-1 acceptor (UniProt P43220).
Common to all, as to test: cell-based or functional assay

Chain of GLP-1 acceptor (P43220 24-463 limits assumed): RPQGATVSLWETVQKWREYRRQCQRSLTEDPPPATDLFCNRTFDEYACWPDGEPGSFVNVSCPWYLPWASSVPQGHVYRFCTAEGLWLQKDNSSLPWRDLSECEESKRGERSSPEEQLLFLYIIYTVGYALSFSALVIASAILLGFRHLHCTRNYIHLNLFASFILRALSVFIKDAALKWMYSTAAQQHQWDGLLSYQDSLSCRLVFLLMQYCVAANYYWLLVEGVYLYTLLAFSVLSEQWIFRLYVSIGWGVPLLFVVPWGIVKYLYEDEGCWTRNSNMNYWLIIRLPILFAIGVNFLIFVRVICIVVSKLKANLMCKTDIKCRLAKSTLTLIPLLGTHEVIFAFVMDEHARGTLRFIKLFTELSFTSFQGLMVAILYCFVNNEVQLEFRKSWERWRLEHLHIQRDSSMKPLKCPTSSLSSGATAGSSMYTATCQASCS
Chain of rhFGF21 (Native) (Q9NSA1 29-209 limits assumed): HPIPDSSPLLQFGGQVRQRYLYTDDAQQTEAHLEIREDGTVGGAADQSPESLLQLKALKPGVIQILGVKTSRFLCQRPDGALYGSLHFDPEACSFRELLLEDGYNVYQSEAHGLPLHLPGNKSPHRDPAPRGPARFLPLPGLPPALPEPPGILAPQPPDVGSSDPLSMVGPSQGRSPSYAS
Chain of FGFR1/KLB acceptor (P11362 22-822 limits assumed, chain 1 of 2): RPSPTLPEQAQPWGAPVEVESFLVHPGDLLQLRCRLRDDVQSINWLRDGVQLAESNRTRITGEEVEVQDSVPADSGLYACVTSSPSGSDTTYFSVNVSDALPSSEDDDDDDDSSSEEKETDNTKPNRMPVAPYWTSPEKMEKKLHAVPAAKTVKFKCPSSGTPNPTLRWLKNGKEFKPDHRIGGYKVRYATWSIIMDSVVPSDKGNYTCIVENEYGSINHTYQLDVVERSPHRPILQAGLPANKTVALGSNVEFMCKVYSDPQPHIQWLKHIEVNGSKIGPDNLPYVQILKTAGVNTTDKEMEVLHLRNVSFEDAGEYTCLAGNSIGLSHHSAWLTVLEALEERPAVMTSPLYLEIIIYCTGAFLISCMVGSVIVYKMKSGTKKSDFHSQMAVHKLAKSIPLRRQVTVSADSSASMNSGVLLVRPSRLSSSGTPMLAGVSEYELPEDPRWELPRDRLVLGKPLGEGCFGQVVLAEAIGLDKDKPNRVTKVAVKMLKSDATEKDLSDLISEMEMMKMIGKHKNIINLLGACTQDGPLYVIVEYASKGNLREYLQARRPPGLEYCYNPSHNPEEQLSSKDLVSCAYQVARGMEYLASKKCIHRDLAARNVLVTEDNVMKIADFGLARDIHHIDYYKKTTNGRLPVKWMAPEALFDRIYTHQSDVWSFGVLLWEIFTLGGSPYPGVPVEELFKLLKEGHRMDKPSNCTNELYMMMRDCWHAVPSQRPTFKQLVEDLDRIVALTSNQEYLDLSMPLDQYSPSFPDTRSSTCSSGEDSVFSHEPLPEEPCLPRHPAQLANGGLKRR
Chain of FGFR1/KLB acceptor (Q86Z14 whole entry, chain 2 of 2, further chain): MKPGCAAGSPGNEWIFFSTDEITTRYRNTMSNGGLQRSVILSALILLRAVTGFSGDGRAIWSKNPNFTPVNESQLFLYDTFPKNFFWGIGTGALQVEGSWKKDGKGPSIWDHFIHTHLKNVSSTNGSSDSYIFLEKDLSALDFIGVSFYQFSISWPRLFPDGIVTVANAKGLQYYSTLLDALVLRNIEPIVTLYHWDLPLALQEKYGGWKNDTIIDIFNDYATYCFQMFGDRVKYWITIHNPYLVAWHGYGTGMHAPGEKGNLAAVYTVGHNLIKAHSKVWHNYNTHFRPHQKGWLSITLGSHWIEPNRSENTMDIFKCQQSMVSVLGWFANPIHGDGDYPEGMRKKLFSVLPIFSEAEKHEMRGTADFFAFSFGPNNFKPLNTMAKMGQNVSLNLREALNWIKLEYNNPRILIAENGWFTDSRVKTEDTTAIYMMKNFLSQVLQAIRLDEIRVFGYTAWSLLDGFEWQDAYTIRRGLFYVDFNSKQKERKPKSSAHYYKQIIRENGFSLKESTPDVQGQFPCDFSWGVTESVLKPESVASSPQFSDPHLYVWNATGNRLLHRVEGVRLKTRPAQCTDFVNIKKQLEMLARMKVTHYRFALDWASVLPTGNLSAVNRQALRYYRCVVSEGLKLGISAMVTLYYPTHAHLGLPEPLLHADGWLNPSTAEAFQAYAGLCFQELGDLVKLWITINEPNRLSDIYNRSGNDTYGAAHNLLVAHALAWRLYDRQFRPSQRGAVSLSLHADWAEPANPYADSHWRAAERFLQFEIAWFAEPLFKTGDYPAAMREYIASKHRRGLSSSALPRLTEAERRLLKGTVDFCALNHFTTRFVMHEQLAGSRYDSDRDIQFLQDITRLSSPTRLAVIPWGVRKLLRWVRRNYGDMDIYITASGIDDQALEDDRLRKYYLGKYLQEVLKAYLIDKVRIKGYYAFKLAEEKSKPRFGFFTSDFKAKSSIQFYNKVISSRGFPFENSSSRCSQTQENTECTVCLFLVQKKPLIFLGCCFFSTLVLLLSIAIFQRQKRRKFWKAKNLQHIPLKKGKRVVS
Chain of Dulaglutide (Fc fusion) (chain): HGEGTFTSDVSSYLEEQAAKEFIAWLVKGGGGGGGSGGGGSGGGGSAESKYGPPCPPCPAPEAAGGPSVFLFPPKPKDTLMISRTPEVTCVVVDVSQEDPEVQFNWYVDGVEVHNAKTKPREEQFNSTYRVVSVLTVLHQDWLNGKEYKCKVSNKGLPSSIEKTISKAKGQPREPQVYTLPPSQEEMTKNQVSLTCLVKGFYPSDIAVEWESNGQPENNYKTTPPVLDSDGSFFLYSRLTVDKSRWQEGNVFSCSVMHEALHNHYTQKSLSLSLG
Chain of IL-1RA acceptor (P14778 18-569 limits assumed): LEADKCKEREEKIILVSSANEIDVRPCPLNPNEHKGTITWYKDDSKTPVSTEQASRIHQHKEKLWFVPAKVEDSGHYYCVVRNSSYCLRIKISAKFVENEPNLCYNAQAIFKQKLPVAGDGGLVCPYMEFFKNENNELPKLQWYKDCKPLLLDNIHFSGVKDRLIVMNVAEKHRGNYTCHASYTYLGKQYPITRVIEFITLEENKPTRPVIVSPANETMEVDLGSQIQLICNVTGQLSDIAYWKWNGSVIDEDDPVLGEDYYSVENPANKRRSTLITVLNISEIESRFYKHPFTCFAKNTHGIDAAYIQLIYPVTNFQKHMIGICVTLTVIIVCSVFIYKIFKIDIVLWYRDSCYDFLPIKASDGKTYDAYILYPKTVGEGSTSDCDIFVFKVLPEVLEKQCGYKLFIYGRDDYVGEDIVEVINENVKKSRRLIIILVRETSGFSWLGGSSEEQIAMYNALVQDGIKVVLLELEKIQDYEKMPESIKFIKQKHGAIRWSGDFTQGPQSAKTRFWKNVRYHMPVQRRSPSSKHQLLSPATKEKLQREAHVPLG
Chain of GIP acceptor (P48546 22-466 limits assumed): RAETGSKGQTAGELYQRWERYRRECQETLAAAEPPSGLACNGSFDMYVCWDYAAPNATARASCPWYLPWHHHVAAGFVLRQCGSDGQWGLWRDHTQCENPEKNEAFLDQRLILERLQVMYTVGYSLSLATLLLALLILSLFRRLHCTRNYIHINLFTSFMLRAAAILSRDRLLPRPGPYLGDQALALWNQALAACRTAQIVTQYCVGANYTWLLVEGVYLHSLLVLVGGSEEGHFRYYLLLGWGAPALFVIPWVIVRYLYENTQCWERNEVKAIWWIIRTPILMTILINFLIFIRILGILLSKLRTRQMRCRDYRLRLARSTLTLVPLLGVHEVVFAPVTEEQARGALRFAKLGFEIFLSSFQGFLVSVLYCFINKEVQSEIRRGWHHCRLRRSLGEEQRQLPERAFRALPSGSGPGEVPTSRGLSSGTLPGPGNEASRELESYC

In the test with IL-1RA acceptor, “rhIL-1RA (Native) (from UniProt P18510 26-177) (ligand)” registered an IC50, NF-κB reporter gene luciferase assay with IL-1β; Mean of 0.0475 nM; an IC50, NF-κB reporter gene luciferase assay with IL-1β; n = 2 of 0.0686 nM; an IC50, NF-κB reporter gene luciferase assay with IL-1β; run 1 of 0.0399 nM; an IC50, NF-κB reporter gene luciferase assay with IL-1β; run 2 of 0.0515 nM. Also, in the test with IL-1RA acceptor, the IC50, NF-κB reporter gene luciferase assay with IL-1β; run 3 is 0.0466 nM and the IC50, NF-κB reporter gene luciferase assay with IL-1β; run 4 turned out to be 0.0519 nM.

In the test with FGFR1/KLB acceptor, “rhFGF21 (Native) (from UniProt Q9NSA1 29-209) (ligand)” had an EC50, FGFR1/KLB functional assay; Mean of 0.82 nM; an EC50, FGFR1/KLB functional assay; n = 4 of 1.17 nM; an EC50, FGFR1/KLB functional assay; run 1 of 0.75 nM; an EC50, FGFR1/KLB functional assay; run 2 of 0.88 nM.

Take “GIP(1-39) (from UniProt P09681 52-90) (peptide)”: in the test with GIP acceptor, the EC50, cAMP accumulation assay; Mean is 0.0148 nM; the EC50, cAMP accumulation assay; run 1 was determined as 0.0154 nM; the EC50, cAMP accumulation assay; run 2 was determined as 0.0141 nM.

In the test with GLP-1 acceptor, Dulaglutide (Fc fusion) gave an EC50, cAMP accumulation assay; Mean of 0.00107 nM; an EC50, cAMP accumulation assay; Stable cell line, n = 6 of 0.00145 nM; an EC50, cAMP accumulation assay; run 1 of 0.00123 nM; an EC50, cAMP accumulation assay; run 2 of 0.0009 nM.
